Biological target: recombinant human IP-10 (Peprotech) (human) (UniProt P02778)
Assay: cell-based or functional assay

Sequence of recombinant human IP-10 (Peprotech) (human) (P02778 22-98 limits assumed): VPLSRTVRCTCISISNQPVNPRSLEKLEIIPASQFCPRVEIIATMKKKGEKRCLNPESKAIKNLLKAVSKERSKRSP

B1: CC21R3P5_C5 (scFv format) (scFv, part only; not given: scFv linker, part only)
scFv, part: QVQLVQSGGGVVQPGRSLRLSCAASGFTFSTYGMHWVRQAPGKGLEWVAVISYDGGTKYYADSVKGRFTISRDNSMKTLYLQMNSLRTEDTAVYYCAKDLGDLPPGLDYWGRGTMVTVSSCHEMICALLYSYNTHESIZEDSYELTQPPSVSVALGQTATITCGGSSIESKSVHWYQEKPGQAPVLVIYKDSNRPSVIPERFSGSNSGNTATLTIGRAQAGDEADYYCQVWDSSTGVVFGGGTKLTVL
- Calcium flux IC50 (nM); 10 nM hIP-10: 89 nM
- Chemotaxis IC50 (nM); 1 nM hIP-10: 90 nM
